Data taken from PMC5399129.

Columns and labels:
[1] = biological target: MbR E179A (Methanococcoides burtonii); experiment: native gel or EMSA; non-denaturing PAGE (4-15% gel; 25 mM Tris, 0.19 M glycine, pH 8.3) of activated MbR incubated with 1x or 10x molar 2-CABP (relative to active sites) for 1 h at room temperature; step: L2 dimers to higher oligomers up to L10; some 2-CABP-bound samples were then incubated with 20 or 40 mM EDTA for 30 min, which did not pull the higher order complexes apart
[2] = biological target: Methanococcoides burtonii Rubisco (MbR), wild type, H6-Ub tag cleaved (Methanococcoides burtonii); experiment: native gel or EMSA; non-denaturing PAGE of purified, activated MbR incubated without 2-CABP: with 4-CABP or XuBP (1x, 10x molar), 3-PGA (1x, 10x, 1000x molar) or crystallization buffer alone, 1 h at room temperature; step: L2 dimers to higher oligomers
[3] = biological target: Methanococcoides burtonii Rubisco (MbR), wild type, H6-Ub tag cleaved (Methanococcoides burtonii); experiment: crystal structure; MbR activated (10 mM NaHCO3, 10 mM MgCl2) and incubated with a 10-fold molar excess of 2-CABP; hanging drop, room temperature; 2.6 Å; five LSus in the asymmetric unit, L10 by crystallographic symmetry
[4] = biological target: MbR D183A (Methanococcoides burtonii); experiment: native gel or EMSA; non-denaturing PAGE (4-15% gel; 25 mM Tris, 0.19 M glycine, pH 8.3) of activated MbR incubated with 1x or 10x molar 2-CABP (relative to active sites) for 1 h at room temperature; step: L2 dimers to higher oligomers up to L10; some 2-CABP-bound samples were then incubated with 20 or 40 mM EDTA for 30 min, which did not pull the higher order complexes apart
[5] = biological target: MbR D366A (Methanococcoides burtonii); experiment: as above

MbR E179A (enzyme)
stoichiometry N [1]: 2

Methanococcoides burtonii Rubisco (MbR), wild type, H6-Ub tag cleaved (enzyme)
stoichiometry N [2]: 2 | stoichiometry N [3]: 10

MbR D183A (enzyme)
stoichiometry N [4]: 10

MbR D366A (enzyme)
stoichiometry N [5]: 10
